In patent US20260266848A1, “COMPOSITIONS AND METHODS FOR DIAGNOSING AND TREATING DYSTONIA” (Duke University, priority 2023, published 2026):

What was measured:
DYT-TOR1A MEF EVs = assay: Quantitative LC-MS/MS proteomics of EVs from drug-treated DYT-TOR1A MEF cultures (ritonavir, salubrinal); assay type: cell-based, mouse; parameters: key to RTV Corrective Direction / RTV Corrective Direction, Grwd1 / RTV Corrective Direction, Srrm2 / RTV Corrective Direction, Rbm17 / RTV Corrective Direction, Dcaf8 / RTV Corrective Direction, Edil3 / RTV Corrective Direction, Timp3 / RTV Corrective Direction, Heatr3 / RTV Corrective Direction, Brd4 / RTV Corrective Direction, P3h4 / RTV Corrective Direction, Pacsin3 / RTV Corrective Direction, Naa50 / RTV Corrective Direction, Lpar6 / RTV Corrective Direction, Ndrg1 / RTV Corrective Direction, Kntc1 / RTV Corrective Direction, Cdk11b / RTV Corrective Direction, Sumo1 / RTV Corrective Direction, Lsm4 / RTV Corrective Direction, Hmga2 / RTV Corrective Direction, Cstf1 / RTV Corrective Direction, Tes / RTV Corrective Direction, Sbno1 / RTV Corrective Direction, Unc119b / RTV Corrective Direction, Cfdp1 / RTV Corrective Direction, Sec61b: YES = protein abundance effect opposite to DYT/WT; conditions: EV protein abundance; for RTV Corrective Direction: DYT + RTV (ritonavir) vs DYT, direction compared with DYT/WT; for DYT + RTV/DYT Cohen's d: ritonavir (RTV)-treated DYT vs DYT
WT MEF EVs = assay: Quantitative LC-MS/MS proteomics of EVs from ISRIB-treated WT MEF cultures; assay type: cell-based, mouse; parameters: key to ISRIB and DYT Parallel Direction / ISRIB and DYT Parallel Direction, Ctdsp1 / ISRIB and DYT Parallel Direction, Pcdh19 / ISRIB and DYT Parallel Direction, Tspan7 / ISRIB and DYT Parallel Direction, Myo1e / ISRIB and DYT Parallel Direction, Plpp3 / ISRIB and DYT Parallel Direction, Sh3bp4 / ISRIB and DYT Parallel Direction, Dnajc7 / ISRIB and DYT Parallel Direction, Drg1 / ISRIB and DYT Parallel Direction, Maea: YES = protein abundance effect similar to DYT/WT; conditions: EV protein abundance; for WT + ISRIB/WT Cohen's d: ISRIB-treated WT vs WT; for ISRIB and DYT Parallel Direction: WT + ISRIB vs WT, direction compared with DYT/WT

Row | Molecule | RTV Corrective Direction (DYT-TOR1A MEF EVs) | DYT + RTV/DYT Cohen's d (DYT-TOR1A MEF EVs) | WT + ISRIB/WT Cohen's d (WT MEF EVs) | ISRIB and DYT Parallel Direction (WT MEF EVs)
1 | Add1 (protein, UniProt P35611 1-737, looked up) Alpha-adducin: MNGDSRAAVVTSPPPTTAPHKERYFDRVDENNPEYLRERNMAPDLRQDFNMMEQKKRVSMILQSPAFCEELESMIQEQFKKGKNPTGLLALQQIADFMTTNVPNVYPAAPQGGMAALNMSLGMVTPVNDLRGSDSIAYDKGEKLLRCKLAAFYRLADLFGWSQLIYNHITTRVNSEQEHFLIVPFGLLYSEVTASSLVKINLQGDIVDRGSTNLGVNQAGFTLHSAIYAARPDVKCVVHIHTPAGAAVSAMKCGLLPISPEALSLGEVAYHDYHGILVDEEEKVLIQKNLGPKSKVLILRNHGLVSVGESVEEAFYYIHNLVVACEIQVRTLASAGGPDNLVLLNPEKYKAKSRSPGSPVGEGTGSPPKWQIGEQEFEALMRMLDNLGYRTGYPYRYPALREKSKKYSDVEVPASVTGYSFASDGDSGTCSPLRHSFQKQQREKTRWLNSGRGDEASEEGQNGSSPKSKTKWTKEDGHRTSTSAVPNLFVPLNTNPKEVQEMRNKIREQNLQDIKTAGPQSQVLCGVVMDRSLVQGELVTASKAIIEKEYQPHVIVSTTGPNPFTTLTDRELEEYRREVERKQKGSEENLDEAREQKEKSPPDQPAVPHPPPSTPIKLEEDLVPEPTTGDDSDAATFKPTLPDLSPDEPSEALGFPMLEKEEEAHRPPSPTEAPTEASPEPAPDPAPVAEEAAPSAVEEGAAADPGSDGSPGKSPSKKKKKFRTPSFLKKSKKKSDS | YES | 4.30 | 0.00 | YES
2 | Capg (protein, UniProt P24452 1-352, looked up) Macrophage-capping protein: MYTPIPQSGSPFPASVQDPGLHIWRVEKLKPVPIARESHGIFFSGDSYLVLHNGPEEASHLHLWIGQQSSRDEQGACAVLAVHLNTLLGERPVQHREVQGNESDLFMSYFPRGLKYYREGGVESAFHKTTSGARGAAIRKLYQVKGKKNIRATERPLSWDSFNTGDCFILDLGQNIFAWCGGKSNILERNKARDLALAIRDSERQGKAQVEIITDGEEPAEMIQVLGPKPALKEGNPEEDITADQTRPNAQAAALYKVSDATGQMNLTKVADSSPFASELLIPDDCFVLDNGLCAQIYIWKGRKANEKERQAALQVADGFISRMRYSPNTQVEILPQGRESPIFKQFFKNWK | YES | 3.57 | −0.61 | YES
3 | Ddx5 (protein, UniProt Q61656 1-614, looked up) Probable ATP-dependent RNA …: MSSYSSDRDRGRDRGFGAPRFGGSRTGPLSGKKFGNPGEKLVKKKWNLDELPKFEKNFYQEHPDLARRTAQEVDTYRRSKEITVRGHNCPKPVLNFYEANFPANVMDVIARQNFTEPTAIQAQGWPVALSGLDMVGVAQTGSGKTLSYLLPAIVHINHQPFLERGDGPICLVLAPTRELAQQVQQVAAEYCRACRLKSTCIYGGAPKGPQIRDLERGVEICIATPGRLIDFLECGKTNLRRTTYLVLDEADRMLDMGFEPQIRKIVDQIRPDRQTLMWSATWPKEVRQLAEDFLKDYIHINIGALELSANHNILQIVDVCHDVEKDEKLIRLMEEIMSEKENKTIVFVETKRRCDELTRKMRRDGWPAMGIHGDKSQQERDWVLNEFKHGKAPILIATDVASRGLDVEDVKFVINYDYPNSSEDYIHRIGRTARSTKTGTAYTFFTPNNIKQVSDLISVLREANQAINPKLLQLVEDRGSGRSRGRGGMKDDRRDRYSAGKRGGFNTFRDRENYDRGYSNLLKRDFGAKTQNGVYSAANYTNGSFGSNFVSAGIQTSFRTGNPTGTYQNGYDSTQQYGSNVANMHNGMNQQAYAYPLPQAAPMIGYPMPTGYSQ | YES | 4.48 | −0.92 | YES
4 | Plekho2 (protein, UniProt Q8K124 1-495, looked up) Pleckstrin homology …: MEEESIKEGSEKPRGARTADKAGWIKKSSGGLLGLWKDRYLLLCQAQLLVYENEDEQKCVETVELGSYEKCQDLRTLLKRKHHRFILLRSPGNKVSDIKFQAPSGEEKESWIKALNEGINRGKNKAFDEVKVDKTCALEHVTRNRVRGGQRRRPPTRIHLKEVASAASDGLSRLDLDVPDSGPPVFAPLSDISEDQPQEPPRALMPPVKPSPGPETSAVEDSKETPAGERALTPDSASSGANPESQEDAETPAKEDSDVKSLPNSTLSEKLKVSWENPSPEKPSAPESAQLSSSETPEATPRESKKPPAPPPKILSEKMKACMSGVDASGSSQSSEAPETTSPEPTQVSVNGMDDGPESALQAMGIPGPAPEDAAASPALPFSDLPSQFHPRSSSLGDLLRESPQHPRLPKEKLYRAQLEVKVASKQTEKLLNQVLGSEPPPVCAESLLSQAVEQLRQATQVLQEMRDLGELNQETPGLVQKRKELVTLYRRSAP | YES | −5.03 | 0.14 | YES
5 | Psmd1 (protein, UniProt Q3TXS7 1-953, looked up) 26S proteasome non-ATPase …: MITSAAGIISLLDEEEPQLKEFALHKLNAVVNDFWAEISESVDKIEVLYEDEGFRSRQFAALVASKVFYHLGAFEESLNYALGAGDLFNVNDNSEYVETIIAKCIDHYTKQCVENADLPEGEKKPIDQRLEGIVNKMFQRCLDDHKYKQAIGIALETRRLDVFEKTILESNDVPGMLAYSLKLCMSLMQNKQFRNKVLRVLVKIYMNLEKPDFINVCQCLIFLDDPQAVSDILEKLVKEDNLLMAYQICFDLYESASQQFLSSVIQNLRTVGTPIASVPGSTNTGTVPGSEKDSDPMETEEKTASAVAGKTPDASPEPKDQTLKMIKILSGEMAIELHLQFLIRNNNTDLMILKNTKDAVRNSVCHTATVIANSFMHCGTTSDQFLRDNLEWLARATNWAKFTATASLGVIHKGHEKEALQLMATYLPKDTSPGSAYQEGGGLYALGLIHANHGGDIIDYLLNQLKNASNDIVRHGGSLGLGLAAMGTARQDVYDLLKTNLYQDDAVTGEAAGLALGLVMLGSKNAQAIEDMVGYAQETQHEKILRGLAVGIALVMYGRMEEADALIESLCRDKDPILRRSGMYTVAMAYCGSGNNKAIRRLLHVAVSDVNDDVRRAAVESLGFILFRTPEQCPSVVSLLSESYNPHVRYGAAMALGICCAGTGNKEAINLLEPMTNDPVNYVRQGALIASALIMIQQTEITCPKVNQFRQLYSKVINDKHDDVMAKFGAILAQGILDAGGHNVTISLQSRTGHTHMPSVVGVLVFTQFWFWFPLSHFLSLAYTPTCVIGLNKDLKMPKVQYKSNCKPSTFAYPAPLEVPKEKEKEKVSTAVLSITAKAKKKEKEKEKKEEEKMEVDEAEKKEEKEKKKEPEPNFQLLDNPARVMPAQLKVLSMTETCRYQPFKPLSIGGIIILKDTSEDVEELVEPVAAHGPKIEEEEQEPEPPEPFEYIDD | YES | 4.33 | −0.65 | YES
6 | Dbn1 (protein, UniProt Q16643 2-649, looked up) Drebrin: AGVSFSGHRLELLAAYEEVIREESAADWALYTYEDGSDDLKLAASGEGGLQELSGHFENQKVMYGFCSVKDSQAALPKYVLINWVGEDVPDARKCACASHVAKVAEFFQGVDVIVNASSVEDIDAGAIGQRLSNGLARLSSPVLHRLRLREDENAEPVGTTYQKTDAAVEMKRINREQFWEQAKKEEELRKEEERKKALDERLRFEQERMEQERQEQEERERRYREREQQIEEHRRKQQTLEAEEAKRRLKEQSIFGDHRDEEEETHMKKSESEVEEAAAIIAQRPDNPREFFKQQERVASASAGSCDVPSPFNHRPGSHLDSHRRMAPTPIPTRSPSDSSTASTPVAEQIERALDEVTSSQPPPLPPPPPPAQETQEPSPILDSEETRAAAPQAWAGPMEEPPQAQAPPRGPGSPAEDLMFMESAEQAVLAAPVEPATADATEIHDAADTIETDTATADTTVANNVPPAATSLIDLWPGNGEGASTLQGEPRAPTPPSGTEVTLAEVPLLDEVAPEPLLPAGEGCATLLNFDELPEPPATFCDPEEVEGESLAAPQTPTLPSALEELEQEQEPEPHLLTNGETTQKEGTQASEGYFSQSQEEEFAQSEELCAKAPPPVFYNKPPEIDITCWDADPVPEEEEGFEGGD | YES | 4.58 | −3.18 | YES
7 | Scfd1 (protein, UniProt Q8BRF7 1-639, looked up) Sec1 family domain-containing …: MVGSKMAATASIRERQTVALKRMLNFNVPHVKNSTGEPVWKVLIYDRFGQDIISPLLSVKELRDMGITLHLLLHSDRDPIPDVPAVYFVMPTEENIDRLCQDLRNQLYESYYLNFISAISRSKLEDIANAALAASAVTQVAKVFDQYLNFITLEDDMFVLCNQNKELVSYRAINRPDITDTEMETVMDTIVDSLFCFFVTLGAVPIIRCSRGTAAEMVAVKLDKKLRENLRDARNSLFTGDPLGTGQFSFQRPLLVLVDRNIDLATPLHHTWTYQALVHDVLDFHLNRVNLEESTGVENSPAGARPKRKNKKSYDLTPVDKFWQKHKGSPFPEVAESVQQELESYRAQEDEVKRLKSIMGLEGEDEGAISMLSDNTAKLTSAVSSLPELLEKKRLIDLHTNVATAVLEHIKARKLDVYFEYEEKIMSKTTLDKSLLDVISDPDAGTPEDKMRLFLIYYISAQQAPSEVDLEQYKKALTDAGCNLSPLQYIKQWKAFAKMASTPASYGNTTTKPMGLLSRVMNTGSQFVMEGVKNLVLKQQNLPVTRILDNLMEMKSNPETDDYRYFDPKMLRSNDSSVPRNKSPFQEAIVFVVGGGNYIEYQNLVDYIKAKQGKHILYGCSEIFNATQFIKQLSQLGQK | YES | 4.43 | −2.48 | YES
